These are literature values, as cited in publication PMC4554539.

Data set [1] addresses IL18 receptor (Homo sapiens) (UniProt Q13478). In words: binding to transfected COS-1 cells.
For data set [2] the target is unchanged. In words: binding to L428 cells.

IL18 receptor (Homo sapiens), sequence (Q13478 19-541): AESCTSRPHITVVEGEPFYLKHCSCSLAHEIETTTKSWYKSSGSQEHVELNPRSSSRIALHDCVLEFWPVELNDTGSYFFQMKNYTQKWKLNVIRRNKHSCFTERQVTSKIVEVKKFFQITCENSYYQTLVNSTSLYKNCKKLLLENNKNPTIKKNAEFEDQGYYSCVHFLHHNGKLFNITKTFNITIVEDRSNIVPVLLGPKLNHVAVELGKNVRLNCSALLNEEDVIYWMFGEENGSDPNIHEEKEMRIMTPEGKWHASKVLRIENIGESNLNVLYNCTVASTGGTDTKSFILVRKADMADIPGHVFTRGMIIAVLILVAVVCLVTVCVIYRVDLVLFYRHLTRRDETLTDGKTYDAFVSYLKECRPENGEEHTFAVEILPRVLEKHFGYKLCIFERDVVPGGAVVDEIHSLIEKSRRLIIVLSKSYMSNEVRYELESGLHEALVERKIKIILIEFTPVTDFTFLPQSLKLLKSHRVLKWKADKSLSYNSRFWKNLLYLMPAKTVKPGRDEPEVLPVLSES
IL18, sequence (Q14116 37-193): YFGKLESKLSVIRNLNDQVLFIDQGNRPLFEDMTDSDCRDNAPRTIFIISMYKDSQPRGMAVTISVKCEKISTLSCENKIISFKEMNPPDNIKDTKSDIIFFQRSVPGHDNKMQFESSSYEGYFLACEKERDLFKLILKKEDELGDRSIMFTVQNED

A word on the Kd: it is the concentration at which binding is half-saturated. IL18 (from UniProt Q14116): the Kd in data set [1] is 46 nM; in data set [2] it was 18.5 nM.
